Source: the nanobody polyreactivity screen of Harvey et al. (2022)

Assay: yeast display, Sf9 membrane polyspecificity reagent, FACS + sequencing; frameworks hold sequencing errors
Method in brief: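 A nanobody's polyreactivity label depends on the gate it was sorted from. Yeast display cells were stained with 10% biotinylated, detergent-solubilized Sf9 membrane reagent for 1 hour at 4 °C, enriched on streptavidin microbeads and sorted by FACS. The low and high (top ~1%) gates were set on anti-HA fluorescence for expression and streptavidin fluorescence for reagent binding.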

Row | Sequence | polyreactivity (PSR sort gate)
1 | QVQLGESGGGLVQAGGSLRLSCAASGRIFPWNTMGWYRQAPGKERELVAGITSGGSTNYADSVKGRFTISRDNAKNTVYLLMNCLKPEATAVYYCAARGYYWYISGVYEYEYWGQGTQVTLSS | low polyreactivity
2 | QVQLGESGGGLVQAGGSLRLSCAASGRTFGLYAMGWYRQAPGKERELVAAISRGTSTNYADSVKGRFTISRDNAKNTVYLEMYSLKPEDTAVYYCNARRKFVGKWGDYWGQGTQVTVSS | low polyreactivity
3 | QVQLGESGGGLVQAGGSLRLSCAASGRTFGYNAIGWYRQAPGKEMELVAVIRSGGSTYYADSVKGRFTISRDNAKNTVYLQMNSLKPEDTAVYYCNADVLPTWYSPELDYWGQGTQVTVSS | low polyreactivity
4 | QVQLGESGGGLVQAGGSLRLSCAASGRTFYGYPMGWYRQAPGKERELVAAISRNGASTFYADSVKGRFTISRDNAKNTVYLQMNSLKPEDTAVYYCNARSWRHTDTSFEYWGQGTQVTVSS | high polyreactivity
5 | QVQLGESGGGLVQAGGSLRLSCAASGRTFYINTMGWYRQAPGKEREFVAAISSGGGRTYYADSVKGRFTISRDNAKNTVYLQMNSLKPEDTAVYYCAAYLGGAEDTYRFGYWGQGTQVTVSS | high polyreactivity
6 | QVQLGESGGGLVQAGGSLRLSCAASGRTIGYYAMGWYRQAPGKERELVAAISVSGTNTYYADSVKGRFTISRDNAKNTVNLQMNSLKPEDTAVYYCAARKVSGVYRAFYYWGQGTQVTVSS | high polyreactivity
7 | QVQLGESGGGLVQAGGSLRLSCAASGRTITRNAMGWYRQAPGKERELVAAISYSGGSTYYADSVKGRFTISRDNAKNTVYLQMNSLKPEDTAVYYFNAATSRRSIRYDYWGQGTQVTVSS | high polyreactivity
8 | QVQLGESGGGLVQAGGSLRLSCAASGSIFGGNTKGWYRQAPGKERELVAAINGGVTTNYADSVKGRFTISRDNAKNTVYLQMNSLKPEDTAVYYCNAVDFGPVVLRLYYWGQGTQVTVSS | low polyreactivity
9 | QVQLGESGGGLVQAGGSLRLSCAASGSIFQKYTMGWYRQAPGKERELVAAITRSGGSTYYADSVKGRFTISRDNAKNTVDFQMNSLKPEDTAVYYCAAPAAGDEYDYWGQVTQVTVSS | high polyreactivity
10 | QVQLGESGGGLVQAGGSLRLSCAASGSIFTYNPMGWYRQAPGKERELVAAITIDDGSTYYADSVKGRFTISRDNAKNTVYLQMNSLKPEDTAVYYCAADFYGVSYSGGEMDYWGLGTQVTVSS | low polyreactivity
11 | QVQLGESGGGLVQAGGSLRLSCAASGSIFYFNAMGWYRQAPGKERELVAAISWSGRTYYADSVKGRFTISRDNAKNTVYLQMNSLKPEDTAVFYCAAKNTGRYYWGQGTQVTVSS | high polyreactivity
12 | QVQLGESGGGLVQAGGSLRLSCAASGSILTPYSMGWYRQAPGKERELDAAITFRGGSTYYADSVKGRFTISRDNAKNTVYLQMNSLKPEDTAVYYCAAGWYWSYWDPYDYWGQGTQVTVSS | high polyreactivity
13 | QVQLGESGGGLVQAGGSLRLSCAASGSTFYYYAMGWYRQAPGKERELVASINYSAGRTYYADSVKGRFTISRDNAKNTVYLQMNSLKPEDTAVYYCAAETPSGYYPQQYDYYWGQGTQVTVSS | high polyreactivity
14 | QVQLGESGGGLVQAGGSLRLSCAGSGRTFQHYFMGWYREAPGKDRELVASITNDDSTNYADSVKGLFTISRDNAKNTVYLQMNRLKPEDTAVYYCAADWTDVVPGYDYWGQGTQVTVSS | low polyreactivity
15 | QVQLGESGGGLVQAGGSLRLSCAPSGNPFTIYAMGWYRPAPGKERELVASSTGRGGSTYYADSVKGRFTISRDNEKNTVYLQMNSLKPEDTAVDYCNADYNSYLYRPPTTRDYWGQGTQVTVSS | low polyreactivity
16 | QVQLGESGGGLVQAGGSLRLSCASSGRTFVVNAMGWYSQAPGKATEFDAAISYRGDSTYYAVSVKGRFTISRDNAKNTVYLQMNSLKPEATAVYYCAARVLGPGRRYYYWGQCTQVTVSS | high polyreactivity

Row | Sequence | polyreactivity (PSR sort gate)
17 | QVQLGESGGGLVQAGGSLRLTCAASGLIFYRNARGWYRQAPGKERELVAAISKNGGNTYYADSVKGRFTISRDYAKNTVYLQMNSLKPEDTAVYYCAARELYGPFGYWGQGTQVTVSS | high polyreactivity
18 | QVQLGESGGGLVQAGGSLRLTCAASGSIFSIYAMGWYIQAPGKERELVAAIDSGTSTTYADSVKGRFTISRDNAKYTVYLQMYSLKPEDTAVYYCAAALYSDVASVATYGYYWGQGTQVTVSS | low polyreactivity
19 | QVQLGESGGGLVQAGGSVRLSCAASGGTFGWYAMGWYRPAPGKERELVAAITSSGGTTFDADSVKGRFTISRDNAKNTVYLQMNSLKPEDTAVYYCAKRGQRPTRYKLGKYDYWGQGTQVTVSS | high polyreactivity
20 | QVQLGESGGGLVQAGVSLRLSCAASGRTFGSYAMGWYRQAPGKESEMVAVISWSGGITYYADSVKGRFTISRDNAKNTVYLQMNSLKPEDTAVYYCAASPRRDENAGRVRLYYWGQGTQVTVSS | high polyreactivity
21 | QVQLGESGGGLVQAVGSLRLSCAASGITFGENAMGWSRQADGKERELVAAITSGGSTDYADSVKGRFTISRDNAKNSVYLQMYCLKPEDTAVYYWAAEAVAYYGSSYGYWGQGTQVTVSS | low polyreactivity
22 | QVQLGESGGVLVQAGGSLRLICAACGSTFSYYTMGWYRKAPGKEREVVAVIYTSGGNTYYADSVKGRFTISRDNAKNTVYLQMNSLKPEDTAVYYCAARWYGRGRYEYWGQGTQVTVSS | high polyreactivity
23 | QVQLGESGGVLVQEGGSLRLSSAASGSILSKYAIGWYRQAPGKERELVAVITSNSGRKYYADYLKGRFTISRDNAKNTVYLQMNSLKPEDTAVYYCAAQRRSSQNYYWGQGTQVTVSS | high polyreactivity
24 | QVQLGESVGGLVQAGGSLRLSCAASGFIIGYYAMGWYRPPPGTERELVAAISSTGGSTYYADSVKGRFTISRDNAKNTVYLQMNSLNPEDTAVYYCAKRFASYRYHPGYDYWGQGTQVTVSS | high polyreactivity
25 | QVQLHESGGGLVQAGGGLRLSCAASGSISSTGFMGWYRQAPGKEREPVAAIAPGTTTYYADSVKGRFTISRDNAKNTVYLQMNSLRPEDTAVFYCAVFTDNRVSFRYWGQGTQVTVSS | low polyreactivity
26 | QVQLHESGGGLVQAGGSLLSCAASGTISYYREMGWYRQAPGKERELVAGIGVGTITYYADSVKGRFTISRDNAKNTVYLHMNSLKPEDTAVYYCAAHFDGNDSHAYWGQGTQVTVSS | low polyreactivity
27 | QVQLHESGGGLVQAGGSLRLSCAASGSISAVGAMGWNRQPPGKEREFAASVNWGTNTNYADSVKGRFTFSRDNAKNTLYLQMNSLKPEDTGVYYCAVLPDWETRHDYWGHGTQVTVSS | low polyreactivity
28 | QVQLHESGGGLVQAGGSLRLSCAASGTISYAGPMGWYRQAPGKEREFVAGIGVGSNTNYADSVKGRYTIIRDNAKNTVYLQMNSLKPEDTAVYYCAVGGYAPLGRPYWGQGTQVTVCS | low polyreactivity
29 | QVQLHESGGGLVQAGGSLRLSCAASGTITDSGLMGWYRQAPGKERELVAGISSGGITNYADSVKGRFTISRDNAKNTVYLQMNSLKPEDTAVYWGQGTQVTVSS | low polyreactivity
30 | QVQLHESGGGLVQAGGSQRLSCASSGYIFYFQYMGWYRQAPGKEREFVAAISDGANTNYADSVKGRFTISRDNAKNTEYLQMNSLKPEDTAVYYCNADQYYWYEYDYWGQGTQVTVSS | low polyreactivity
31 | QVQLHESGGGLVQVGGSQRLSCAASGNIFYNYAMGWYRHAQGKEREFDATINHGTSINYADSVKGRFTISRDNAKNTVYLQMNSLKPEDTAVYYCAADLSWTDNLFYWGQGTQVTVSS | low polyreactivity
32 | QVQLHGSGGGLVQAGCSLRVSCAASGYIFQNVPMGWTRQAPGKERELVAGIDNGTSTNYADSVNGRFTISRDNAKNTVYMQMNSLKPEDTAVYYCAAAGQADDTLGYWGQGTQVTVSS | low polyreactivity
